Test results published in patent US7745574B2, “Compounds that regulate apoptosis” (The Burnham Institute, priority 2005, dated 2010).
Where a SMILES comes first, the peptide text is derived from it. Bridges are numbered along the chain shown (N, C = ends). [ ]: non-standard residue; d: D form. The star is where a group is joined. FITC = O=C1OC2(c3ccc(O)cc3Oc3cc(O)ccc32)c2ccc(NC(=S)*)cc21; Ahx = NCCCCCC(=O)O

Tests used:
[1] = target: T1, Bcl-2 (Homo sapiens, UniProt P10415); experiment: FP competition assay on Bcl-2; type: binding
Procedure: (§1) Fluorescence polarization (FP) assays. GST-Bcl-2, GST-Bcl-XL, or GST protein was briefly incubated with FITC-conjugated peptide with or without competitors in Greiner Fluotrac 600 96-well microplates. Fluorescence polarization was recorded using an Analyst HT 96-384 microplate reader (Molecular Devices, Sunnyvale, Calif.) with excitation wavelength set at 485 nm and dynamic polarizer for emission at 530 nm.
Target sequence in this assay (P10415 whole entry): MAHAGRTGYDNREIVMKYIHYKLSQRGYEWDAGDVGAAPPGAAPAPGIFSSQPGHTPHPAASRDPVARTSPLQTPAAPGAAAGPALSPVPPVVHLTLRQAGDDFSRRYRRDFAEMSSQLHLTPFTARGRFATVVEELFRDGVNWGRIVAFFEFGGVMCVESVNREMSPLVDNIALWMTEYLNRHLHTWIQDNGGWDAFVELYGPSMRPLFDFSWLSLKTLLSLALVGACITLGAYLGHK

[2] = target: Bcl-XL (Homo sapiens, UniProt Q07817); experiment: Circular dichroism (CD) spectroscopy, Bcl-XL; type: binding
Sequence of Bcl-XL (Q07817 whole entry, species assumed): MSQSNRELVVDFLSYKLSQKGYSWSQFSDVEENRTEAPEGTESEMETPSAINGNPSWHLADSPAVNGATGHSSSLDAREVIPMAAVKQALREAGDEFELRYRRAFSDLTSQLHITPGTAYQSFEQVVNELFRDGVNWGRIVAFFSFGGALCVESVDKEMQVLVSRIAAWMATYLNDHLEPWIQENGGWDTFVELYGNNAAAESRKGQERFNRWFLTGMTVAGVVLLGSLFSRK
Procedure: (§2) Circular dichroism (CD) spectroscopy. Stock solutions of 3 mM peptide in 30% acetonitrile/water were added to 0.5 mL of 2 μM purified GST-proteins in PBS, pH 7.6. CD spectra were obtained in a 0.2 cm pathlength cell at 20° C. using an AVIV 62 DS spectropolarimeter for a wavelength range from 200 to 260 nm with a step size of 1 nm averaged for 5 sec. Three spectra were corrected for background and averaged for each sample. The Kd was determined using nonlinear regression analysis for a one-site-binding model (χ2>0.98). Stoichiometry was determined from a […] (Jones, G. et al. 2002 Tet. Let. 43 :6079-6082).

[3] = target: T2, GST-Bcl-2 (Homo sapiens, UniProt P10415); experiment: Circular dichroism (CD) spectroscopy, GST-Bcl-2; type: binding
T2 construct: made in house
T2 sequence (P10415 whole entry): as the sequence (P10415 whole entry) above
Procedure: as §2

[4] = target: T3, GST (Schistosoma japonicum, UniProt P08515); experiment: Circular dichroism (CD) spectroscopy, GST; type: binding
T3 sequence (P08515 whole entry): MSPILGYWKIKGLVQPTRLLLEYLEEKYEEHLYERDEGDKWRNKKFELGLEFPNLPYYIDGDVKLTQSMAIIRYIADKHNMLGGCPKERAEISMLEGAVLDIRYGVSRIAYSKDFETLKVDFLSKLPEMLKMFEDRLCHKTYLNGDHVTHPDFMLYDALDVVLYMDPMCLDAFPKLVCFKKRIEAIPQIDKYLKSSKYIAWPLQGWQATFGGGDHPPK
Procedure: as §2

[5] = test system: Jurkat or CEM cells; experiment: Apoptosis in Jurkat or CEM cells stably expressing Bcl-2; type: cell-based
Procedure: Cell culture. H460 lung cancer cells were maintained in RPMI 1640 medium supplemented with 10% fetal bovine serum (FBS). HEK293T embryonic kidney cells were grown in DME medium supplemented with 10% FBS. Jurkat and Jurkat cells stably expressing Bcl-2 were kindly provided by Dr. John Reed, and they were maintained in RPMI1640 medium.

[6] = target: T1, Bcl-2; experiment: Binding to Bcl-2, method not stated; set-up: precipitated endogenous Bcl-2 in cells treated with L-NuBCP-9-r8 or D-NuBCP-9-r8; endogenous in cells
Target sequence in this assay (P10415 whole entry, species assumed): as the sequence (P10415 whole entry) above

[7] = test system: H460 lung cancer cells; experiment: Apoptosis in H460 lung cancer cells; type: cell-based
[8] = target: GST-Bcl-XL (Homo sapiens, UniProt Q07817); experiment: Fluorescence polarization (FP) assay, GST-Bcl-XL; type: binding
Sequence of GST-Bcl-XL (Q07817 whole entry, species assumed): as the sequence (Q07817 whole entry, species assumed) above
Procedure: as §1

[9] = target: T3, GST; experiment: Fluorescence polarization (FP) assay, GST; type: binding
Procedure: as §1

[10] = target: T2, GST-Bcl-2; experiment: Fluorescence polarization (FP) assay, GST-Bcl-2; type: binding
Procedure: as §1

[11] = target: T1, Bcl-2; experiment: Co-immunoprecipitation with Bcl-2 in HEK293T cells; type: binding; set-up: expressed in transfected cells; host or cells: HEK293T
Procedure: Nur77 peptide binds anti-apoptotic Bcl-2 family members. Nur77-peptide binds Bcl-B, Bfl-1, and Bcl-2, but not Mcl-1 and Bcl-xL. […] The expression vector for the GFP-Nur77/489-497 fusion was transfected into HEK293T cells together with or without the indicated expression vector for myc-tagged Bcl-2 family member. Cell lysates were prepared and analyzed for interaction of Nur77/489-497 with Bcl-2 family members by co-immunoprecipitation assay using anti-Myc antibody. Immunoprecipitates were then separated on SDS/PAGE and immunoblotted using anti-GFP antibody. […] Nur77/Bcl-2 interaction assays—Reporter gene assays using NurRE-tk-CAT in CV-1 cells, and GST pull-down assay were described previously (Li, et al. 2000 Science 289:1159-1164). For the mammalian two-hybrid assays, CV-1 cells were co-transfected with pcDNA-Gal4TAD-Nur77 or pcDNA-Gal4TAD-Nur77/ΔDBD and pcDNA-Gal4 DBD-Bcl-2/ΔTM along with a luciferase reporter gene driven by four copies of the Gal-4-binding site. The cells were harvested and reporter gene activity was measured. For Co-IP assays, HEK293T cells were transiently transfected with various expression plasmids using a modified calcium phosphate precipitation method (Wu et al, 1997) in the presence of caspase inhibitors (zVAD-fmk) to prevent degradation of Nur77 protein due to apoptosis. Cells were suspended in lysis buffer (50 mM Tris-HCl, PH7.4; 150 mM NaCl; 20 mM EDTA; 1% NP-40; 1 mM PMSF; 50 μg/ml Leupeptin; […]; 0.1 mM Na3VO4; and 1 mM DTT). Cells extracts were cleared by incubation with the Protein A/G plus Agarose beads (Santa Cruz) and then incubated with appropriate antibody and 30 μl of Protein A or G plus Agarose beads overnight at 4° C. […] Immunoreactive products were detected by chemiluminescence with an enhanced chemiluminescence system (ECL) (Amersham).
Target sequence in this assay (P10415 whole entry): as the sequence (P10415 whole entry) above

[12] = target: T1, Bcl-2; experiment: Bcl-2 conformational change, anti-Bcl-2/BH3 antibody staining of HEK293T cells transfected with Bcl-2; type: cell-based; set-up: expressed in transfected cells; host or cells: HEK293T; conditions: flow cytometry
Procedure: Such a Bcl-2 conformation is recognized by an anti-Bcl-2 antibody raised against the Bcl-2 BH3 domain. To determine whether NuBCP-9 induced a Bcl-2 conformational change, flow cytometric assays were conducted which HEK293T cells transfected with Bcl-2 were exposed to NuBCPs and subsequently stained with the anti-Bcl-2/BH3 antibody.
Target sequence in this assay (P10415 whole entry): as above

[13] = test system: ZR-75-1 breast cancer cells; experiment: Apoptosis in ZR-75-1 breast cancer cells; type: cell-based; conditions: <10 μM peptide
Procedure: (§3) Apoptosis assays—For nuclear morphological change analysis, cells were trypsinized, washed with PBS, fixed with 3.7% paraformaldehyde, and stained with DAPI (4,6-diamidino-2-phenylindole) (50 μg/ml) to visualize the nuclei by UV-microscopy. The percentages of apoptotic cells were determined by counting 300 GFP-positive cells, scoring cells having nuclear fragmentation and/or chromatin condensation.

[14] = test system: normal primary mammary epithelial cells; experiment: Apoptosis in normal primary mammary epithelial cells; type: cell-based
Procedure: as §3

[15] = test system: various cancer cell lines; experiment: Apoptosis in various cancer cell lines; type: cell-based
Procedure: as §3

[16] = target: T1, Bcl-2; experiment: Immunoprecipitation of endogenous Bcl-2 by anti-Bcl-2/BH3 antibody in treated cells; type: cell-based; set-up: precipitated endogenous Bcl-2 in cells treated with L-NuBCP-9-r8 or D-NuBCP-9-r8; endogenous in cells
Target sequence in this assay (P10415 whole entry, species assumed): as the sequence (P10415 whole entry) above

Compound: CN(C)CC[C@H](CSc1ccccc1)Nc1ccc(S(=O)(=O)NC(=O)c2ccc(N3CCN(Cc4ccccc4-c4ccc(Cl)cc4)CC3)cc2)cc1[N+](=O)[O-] [ABT-737, reference compound]
- competition for binding of FITC-L-NuBCP-9-r8 or FITC-D-NuBCP-9-r8 to Bcl-2 [1]: failure

Compound: CC(=O)N[C@@H](Cc1ccccc1)C(=O)N[C@@H](CO)C(=O)N[C@@H](CCCNC(=N)N)C(=O)N[C@@H](CO)C(=O)N[C@@H](CC(C)C)C(=O)N[C@@H](Cc1c[nH]cn1)C(=O)N[C@@H](CO)C(=O)N[C@@H](CC(C)C)C(=O)N[C@@H](CC(C)C)C(N)=O [NuBCP-9, FSRSLHSLL] (Ac-FSRSLHSLL-NH2)
- competition for binding of FITC-L-NuBCP-9-r8 or FITC-D-NuBCP-9-r8 to Bcl-2 [1]: competed
- effect on CD spectra for Bcl-XL [2]: no effect
- Kd [3]: 2100 ± 200 nM
- effect on CD spectra for GST [4]: no effect

Compound: CN[C@@H]1C[C@H]2O[C@@](C)([C@@H]1OC)n1c3ccccc3c3c4c(c5c6ccccc6n2c5c31)C(=O)NC4 [staurosporine]
- effect of stable expression of Bcl-2 on induced apoptosis/cell death [5]: attenuated

Compound: Bad BH3 peptide-CC-Ant: Bad BH3 peptide, Ser replaced with Ala, disulfide-linked to Ant (Ac-NLWAAQRYGRELRRMADEFVDAFKKCCRQIKIWFQNRRMKWKK-NH2; disulfide 26-27; also: Bad BH3 peptide and Ant are two peptides joined by C26-C27 disulfide, no peptide bond)
- effect of stable expression of Bcl-2 on induced apoptosis/cell death [5]: attenuated

Compound: D-Bad BH3 peptide-CC-Ant: D-enantiomer of Bad BH3 peptide, disulfide-linked to Ant (Ac-NLWAAQRYGRELRRMADEFVDAFKKCCRQIKIWFQNRRMKWKK-NH2; disulfide 26-27; not fully specified (some residues); also: D-amino acids, extent within chain not given here) [reference compound]
- binding to Bcl-2 [6]: did not bind
- apoptotic effect ([7]; H460 cells, peptides conjugated with CPP, 10 μM): not apoptotic

Compound: FITC-NuBCP-9-r8: FITC-conjugated NuBCP-9-r8 peptide for FP assays ({FITC}-FSRSLHSLLG[Ahx][dR][dR][dR][dR][dR][dR][dR][dR]-NH2)
- FP of FITC-peptide induced by GST-Bcl-XL [8]: not
- FP of FITC-peptide induced by GST [9]: not
- FP of FITC-peptide induced by GST-Bcl-2 [10]: concentration-dependent FP

Compound: FITC-NuBCP-9/AA-r8: FITC-conjugated NuBCP-9/AA-r8 peptide ({FITC}-ASRSLHSLAG[Ahx][dR][dR][dR][dR][dR][dR][dR][dR]-NH2)
- FP of FITC-peptide induced by GST-Bcl-2 [10]: little affected

Compound: NuBCP-9/AA: unconjugated NuBCP-9 with Ala substituted for the terminal amino acids (Ac-ASRSLHSLAG[Ahx][dR][dR][dR][dR][dR][dR][dR][dR]-NH2; SMILES CC(=O)N[C@@H](C)C(=O)N[C@@H](CO)C(=O)N[C@@H](CCCNC(=N)N)C(=O)N[C@@H](CO)C(=O)N[C@@H](CC(C)C)C(=O)N[C@@H](Cc1c[nH]cn1)C(=O)N[C@@H](CO)C(=O)N[C@@H](CC(C)C)C(=O)N[C@@H](C)C(=O)NCC(=O)NCCCCCC(=O)N[C@H](CCCNC(=N)N)C(=O)N[C@H](CCCNC(=N)N)C(=O)N[C@H](CCCNC(=N)N)C(=O)N[C@H](CCCNC(=N)N)C(=O)N[C@H](CCCNC(=N)N)C(=O)N[C@H](CCCNC(=N)N)C(=O)N[C@H](CCCNC(=N)N)C(=O)N[C@H](CCCNC(=N)N)C(N)=O)
- competition for binding of FITC-L-NuBCP-9-r8 or FITC-D-NuBCP-9-r8 to Bcl-2 [1]: did not
- effect on CD spectra for Bcl-XL [2]: no effect
- changes in GST-Bcl-2 protein CD spectra ([3]; peptide 30 μM, GST-Bcl-2 2 μM): not
- effect on CD spectra for GST [4]: no effect

Compound: Smac-peptide-r8: Smac peptide conjugated with r8, apoptosis-inducing comparison peptide (Ac-AVPIAQKC[Ahx][dR][dR][dR][dR][dR][dR][dR][dR]-NH2; also: Cys thiol joined to chloroacetyl-Ahx by thioether) [reference compound]
- inhibition of co-precipitation of GFP-Nur77/489-497 with Bcl-2 ([11]; peptide added): not
- Bcl-2 immunofluorescence by anti-Bcl-2/BH3 antibody [12]: did not show any Bcl-2 immunofluorescence

Compound: acetyl---GDWIDSILAFSRSLHSLLVDKKC-X-rrrrrrrr (Ac-GDWIDSILAFSRSLHSLLVDKKC[Ahx][dR][dR][dR][dR][dR][dR][dR][dR]-NH2; also: Cys thiol joined to chloroacetyl-Ahx by thioether) [NuBCP-20-r8]
- interaction with Bcl-2 by co-immunoprecipitation [11]: binding
- apoptosis [13]: > 80%
- apoptosis [14]: resistant
- apoptotic effects [15]: potent apoptotic effects
- apoptotic potency compared with BH3 peptides derived from t-Bid [7]: more potent

Compound: t-Bid BH3 peptide-r8: BH3 peptide derived from pro-apoptotic Bcl-2 family member t-Bid, conjugated with r8 (Ac-EDIIRNIARHLAQVGDSMDRC[Ahx][dR][dR][dR][dR][dR][dR][dR][dR]-NH2; also: Cys thiol joined to chloroacetyl-Ahx by thioether) [reference compound]
- Bcl-2 immunofluorescence by anti-Bcl-2/BH3 antibody [12]: did not show any Bcl-2 immunofluorescence
- precipitation of endogenous Bcl-2 by anti-Bcl-2/BH3 antibody [16]: not
